Experimental data taken from patent publication US20060052582.

B1: FLAG Nercc (Δ347-732) (protein)
chain: MDYKDDDDKMSVLGEYERHCDSINSDFGSESGGCGDSSPGPSASQGPRAGGGAAEQEELHYIPIRVLGRGAFGEATLYRRTEDDSLVVWKEVDLTRLSEKERRDALNEIVILALLQHDNIIAYYNHFMDNTTLLIELEYCNGGNLYDKILRQKDKLFEEEMVVWYLFQIVSAVSCIHKAGILHRDIKTLNIFLTKANLIKLGDYGLAKKLNSEYSMAETLVGTPYYMSPELCQGVKYNFKSDIWAVGCVIFELLTLKRTFDATNPLNLCVKIVQGIRAMEVDSSQYSLELIQMVHSCLDQDPEQRPTADELLDRPLLRKRRREMEEKVTLLNAPTKRPRSSTVTEAPIAVVTSRTIRSNSSGLSIGTVFQSSSPGGGGGGGGGEEEDSQQESETPDPSGGFRGTMEADRGMEGLISPTEAMGNSNGASSSCPGWLRKELENAEFIPMPDSPSPLSAAFSESEKDTLPYEELQGLKVASEAPLEHKPQVEASSPRLNPAVTCAGKGTPLTPPACACSSLQVEVERLQGLVLKCLAEQQKLQQENLQIFTQLQKLNKKLEGGQQVGMHSKGTQTAKEEMEMDPKPDLDSDSGCLLGTDSCRPSL
B2: FLAG Nercc (full-length wild type Nercc1 kinase with FLAG epitope tag) (protein)
chain: MDYKDDDDKMSVLGEYERHCDSINSDFGSESGGCGDSSPGPSASQGPRAGGGAAEQEELHYIPIRVLGRGAFGEATLYRRTEDDSLVVWKEVDLTRLSEKERRDALNEIVILALLQHDNIIAYYNHFMDNTTLLIELEYCNGGNLYDKILRQKDKLFEEEMVVWYLFQIVSAVSCIHKAGILHRDIKTLNIFLTKANLIKLGDYGLAKKLNSEYSMAETLVGTPYYMSPELCQGVKYNFKSDIWAVGCVIFELLTLKRTFDATNPLNLCVKIVQGIRAMEVDSSQYSLELIQMVHSCLDQDPEQRPTADELLDRPLLRKRRREMEEKVTLLNAPTKRPRSSTVTEAPIAVVTSRTSEVYIWGGGKSTPQKLDVIKSGCSARQVCAGNTHFAVVTVEKELYTWVNMQGGTKLHGQLGHGDKASYRQPKHVEKLQGKAIHQVSCGDDFTVCVTDEGQLYAFGSDYYGCMGVDKVAGPEVLEPMQLNFFLSNPVEQVSCGDNHVVVLTRNKEVYSWGCGEYGRLGLDSEEDYYTPQKVDVPKALIIVAVQCGCDGTFLLTQSGKVLACGLNEFNKLGLNQCMSGIINHEAYHEVPYTTSFTLAKQLSFYKIRTIAPGKTHTAAIDERGRLLTFGCNKCGQLGVGNYKKRLGINLLGGPLGGKQVIRVSCGDEFTIAATDDNHIFAWGNGGNGRLAMTPTERPHGSDICTSWPRPIFGSLHHVPDLSCRGWHTILIVEKVLNSKTIRSNSSGLSIGTVFQSSSPGGGGGGGGGEEEDSQQESETPDPSGGFRGTMEADRGMEGLISPTEAMGNSNGASSSCPGWLRKELENAEFIPMPDSPSPLSAAFSESEKDTLPYEELQGLKVASEAPLEHKPQVEASSPRLNPAVTCAGKGTPLTPPACACSSLQVEVERLQGLVLKCLAEQQKLQQENLQIFTQLQKLNKKLEGGQQVGMHSKGTQTAKEEMEMDPKPDLDSDSGCLLGTDSCRPSL

Experiments:
[1] = molecular target: myc 6His Nek6 (Nek6 with carboxy terminal myc/6His epitopes)
[2] = molecular target: GST Nek7, unphosphorylated (bacterial recombinant)
GST Nek7, unphosphorylated (bacterial recombinant), sequence (chain, as listed by the source): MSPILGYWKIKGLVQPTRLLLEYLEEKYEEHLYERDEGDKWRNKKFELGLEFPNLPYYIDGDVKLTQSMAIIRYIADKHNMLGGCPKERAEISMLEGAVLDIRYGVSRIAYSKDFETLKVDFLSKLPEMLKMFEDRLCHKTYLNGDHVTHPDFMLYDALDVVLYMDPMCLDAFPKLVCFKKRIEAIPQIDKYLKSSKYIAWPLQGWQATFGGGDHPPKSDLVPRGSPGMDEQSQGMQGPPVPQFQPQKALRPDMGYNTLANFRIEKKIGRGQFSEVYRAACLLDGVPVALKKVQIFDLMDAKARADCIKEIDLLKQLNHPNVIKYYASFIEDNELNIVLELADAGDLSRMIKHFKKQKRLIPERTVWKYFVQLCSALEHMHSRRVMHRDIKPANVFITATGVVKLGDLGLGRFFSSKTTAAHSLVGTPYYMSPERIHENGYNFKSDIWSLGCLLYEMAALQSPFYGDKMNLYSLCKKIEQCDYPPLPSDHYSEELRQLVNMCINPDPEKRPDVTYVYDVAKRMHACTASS

GST Nek6, sequence (chain, as listed by the source): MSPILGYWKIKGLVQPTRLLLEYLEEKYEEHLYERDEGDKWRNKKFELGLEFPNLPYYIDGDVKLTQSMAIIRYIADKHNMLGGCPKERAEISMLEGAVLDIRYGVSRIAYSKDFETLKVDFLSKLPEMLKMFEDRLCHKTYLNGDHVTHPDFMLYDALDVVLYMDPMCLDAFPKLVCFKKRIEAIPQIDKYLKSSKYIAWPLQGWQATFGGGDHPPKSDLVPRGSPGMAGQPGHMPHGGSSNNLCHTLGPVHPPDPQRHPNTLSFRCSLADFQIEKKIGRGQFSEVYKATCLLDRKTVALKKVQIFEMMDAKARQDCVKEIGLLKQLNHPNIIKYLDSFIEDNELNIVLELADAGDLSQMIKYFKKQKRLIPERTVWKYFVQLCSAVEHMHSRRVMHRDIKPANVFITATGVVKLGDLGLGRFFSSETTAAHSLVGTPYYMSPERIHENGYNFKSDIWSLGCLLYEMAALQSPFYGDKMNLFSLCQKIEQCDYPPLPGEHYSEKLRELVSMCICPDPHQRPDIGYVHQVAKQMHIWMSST
myc 6His Nek6 (Nek6 with carboxy terminal myc/6His epitopes), sequence (chain, as listed by the source): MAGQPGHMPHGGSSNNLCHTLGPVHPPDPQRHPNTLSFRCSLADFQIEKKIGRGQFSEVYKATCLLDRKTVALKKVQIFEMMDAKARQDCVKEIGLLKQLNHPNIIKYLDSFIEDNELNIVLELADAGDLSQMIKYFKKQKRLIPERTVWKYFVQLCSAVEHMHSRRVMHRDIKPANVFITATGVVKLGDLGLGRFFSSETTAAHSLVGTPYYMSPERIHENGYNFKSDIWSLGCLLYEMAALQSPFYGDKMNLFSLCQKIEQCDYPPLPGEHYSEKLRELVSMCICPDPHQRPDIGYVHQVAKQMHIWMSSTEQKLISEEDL
GST Nek6 (K74M/K75M), sequence (chain, as listed by the source K74M K75M): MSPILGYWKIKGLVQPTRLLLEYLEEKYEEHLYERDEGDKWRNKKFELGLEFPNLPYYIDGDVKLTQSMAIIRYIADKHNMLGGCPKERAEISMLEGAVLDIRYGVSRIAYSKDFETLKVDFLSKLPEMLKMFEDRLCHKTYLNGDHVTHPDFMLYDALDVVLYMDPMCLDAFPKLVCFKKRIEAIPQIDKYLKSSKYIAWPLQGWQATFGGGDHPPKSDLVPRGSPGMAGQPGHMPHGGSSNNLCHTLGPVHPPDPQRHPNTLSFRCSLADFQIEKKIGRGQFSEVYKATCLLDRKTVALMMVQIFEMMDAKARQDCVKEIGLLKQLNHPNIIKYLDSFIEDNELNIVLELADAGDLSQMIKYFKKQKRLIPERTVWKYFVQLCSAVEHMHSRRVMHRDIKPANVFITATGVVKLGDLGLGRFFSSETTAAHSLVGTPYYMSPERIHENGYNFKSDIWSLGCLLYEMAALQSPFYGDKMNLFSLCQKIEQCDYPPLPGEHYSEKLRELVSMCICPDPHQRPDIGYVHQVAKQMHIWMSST

Protein | specific activity of coexpressed Nek6 [1] | Nek6/7 kinase activity (32P into GST Cdc16 Ct) [2] | phosphorylation of Nek6 (K74M/K75M) at Ser206 in vitro (GST Nek6 (K74M/K75M)) | Nek6/7 kinase activity (32P into GST Cdc16 Ct) (GST Nek6)
B1 | a two-fold increase in the specific activity of coexpressed Nek6 | – | – | –
B2 | – | 20-25 fold activation of Nek6/7 kinase activity | This modification occurred, however, with a rather low efficiency | 20-25 fold activation of Nek6/7 kinase activity
